In patent US20240383989A1 (PHARMABCINE, published 2024):

Tests used:
human KDR1 to 3 domain [1] = target: T1, human KDR1 to 3 domain (human, UniProt P35968 20-327, limits assumed); assay: BLI (Octet), KDR1 to 3 domains on biosensor, scFv added, off-rate screening
T1 construct: domain: KDR1 to 3 domain; The panning antigen was KDR1 to 3 domain-Fc; Treated as one molecule; also called KDR1 to 3 domains; KDR D1 to D3

human KDR1 to 3 domain [2] = target: T1, human KDR1 to 3 domain; assay: BLI (Octet), antibody on biosensor, human KDR1 to 3 as analyte
Protocol: The binding of the selected antibodies to the KDR1 to 3 domain was measured using the Octet system (Fortebio Inc. US).

[3] = target: human KDR1 to 3 domain (human) (UniProt P35968); assay: BLI (Octet), KDR1 to 3 domains on biosensor, scFv added, off-rate screening
Chain of human KDR1 to 3 domain (human) (P35968 20-327 limits assumed): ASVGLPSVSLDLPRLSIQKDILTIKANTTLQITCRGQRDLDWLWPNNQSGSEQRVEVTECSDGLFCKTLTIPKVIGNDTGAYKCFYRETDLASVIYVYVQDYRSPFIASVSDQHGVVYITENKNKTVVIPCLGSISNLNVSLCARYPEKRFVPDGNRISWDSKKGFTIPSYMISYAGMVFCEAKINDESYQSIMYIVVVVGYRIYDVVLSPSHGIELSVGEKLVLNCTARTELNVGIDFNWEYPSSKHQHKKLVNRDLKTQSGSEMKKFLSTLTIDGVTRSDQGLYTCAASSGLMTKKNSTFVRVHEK

[4] = target: human KDR1 to 3 domain (human) (UniProt P35968); assay: BLI (Octet), antibody on biosensor, human KDR1 to 3 as analyte

T1 sequence (P35968 20-327 limits assumed): as above

Binder | koff (human KDR1 to 3 domain [1]) [s⁻¹] | Kd (human KDR1 to 3 domain [2]) [pM] | koff (human KDR1 to 3 domain [2]) [s⁻¹] | other results
D4 (scFv) (scFv, part only; not given: scFv linker, domain order, tags, V domains shown, not shown: another chain or arm of the molecule; small tags and cut ends) VH: EVQLVESGGGLVQPGGSLRLSCAASGYTFSSYWMSWVRQAPGKGLEWVSEINPGNGHTNYNEKFKSRFTISRDKSKNTLYLQMNSLRAEDTAVYYCARHWGPSLTSPFDYWGQGTLVTVSS VL: DIQMTQSPSSLSASVGDRVTITCRADNLGDVNVHWYQQKPGKAPKLLIYYDADRPSGVPSRFSGSNSGNDATLTISSLQPEDFATYYCQAPTNNDPYTFGQGTKVEIK | 0.000165 |  |  | 
A5 (scFv) (scFv, part only; not given: scFv linker, domain order, tags, V domains shown, not shown: another chain or arm of the molecule; small tags and cut ends) VH: EVQLVESGGGLVQPGGSLRLSCAASGYTFSSYWMSWVRQAPGKGLEWVSEINPGNGHTNYNEKFKSRFTISRDKSKNTLYLQMNSLRAEDTAVYYCARHWGPSLTSPFDYWGQGTLVTVSS VL: DIQMTQSPSSLSASVGDRVTITCRADNLGDVNVHWYQQKPGKAPKLLIYYDADRPSGVPSRFSGSNSGNDATLTISSLQPEDFATYYCQAPTTHLPYTFGQGTKVEIK | 0.000187 |  |  | 
D4 (IgG) (antibody, V domains shown, Converted to IgG with the pfusess-hchg1 (human IgG1) and pfuse2ss-hclk (human kappa) vectors) VH: EVQLVESGGGLVQPGGSLRLSCAASGYTFSSYWMSWVRQAPGKGLEWVSEINPGNGHTNYNEKFKSRFTISRDKSKNTLYLQMNSLRAEDTAVYYCARHWGPSLTSPFDYWGQGTLVTVSS VL: DIQMTQSPSSLSASVGDRVTITCRADNLGDVNVHWYQQKPGKAPKLLIYYDADRPSGVPSRFSGSNSGNDATLTISSLQPEDFATYYCQAPTNNDPYTFGQGTKVEIKR |  | 366 | 3.45e-05 | 
LHL-G1 (scFv) (scFv, V domains shown) VH: EVQLVESGGGLVQPGGSLRLSCAASGYTFSSYWMSWVRQAPGKGLEWVSEINPGNGHTNYNEKFKSRFTISRDKSKNTLYLQMNSLRAEDTAVYYCARSYRPSLTSPFDFWGQGTLVTVSS VL: DIQMTQSPSSLSASVGDRVTITCRADNLGDVNVHWYQQKPGKAPKLLIYYDADRPSGVPSRFSGSNSGNDATLTISSLQPEDFATYYCQAPTTNEPYTFGQGTKVEIKR | 0.000239 |  |  | 
D3 (scFv) (scFv, part only; not given: scFv linker, domain order, tags, V domains shown, not shown: another chain or arm of the molecule; small tags and cut ends) VH: EVQLVESGGGLVQPGGSLRLSCAASGYTFSSYWMSWVRQAPGKGLEWVSEINPGNGHTNYNEKFKSRFTISRDKSKNTLYLQMNSLRAEDTAVYYCARHWGPSLTSPFDYWGQGTLVTVSS VL: DIQMTQSPSSLSASVGDRVTITCRADNLGDVNVHWYQQKPGKAPKLLIYYDADRPSGVPSRFSGSNSGNDATLTISSLQPEDFATYYCQAPTKNVPYTFGQGTKVEIK | 0.00015 |  |  | 
LH-E7 (scFv) (scFv, V domains shown) VH: EVQLVESGGGLVQPGGSLRLSCAASGYTFSSYWMSWVRQAPGKGLEWVSEINPGNGHTNYNEKFKSRFTISRDKSKNTLYLQMNSLRAEDTAVYYCARHWGPSLTSPFDYWGQGTLVTVSS VL: DIQMTQSPSSLSASVGDRVTITCRADNLGDVNVHWYQQKPGKAPKLLIYYDADRPSGVPSRFSGSNSGNDATLTISSLQPEDFATYYCQAPTRIAPYTFGQGTKVEIKR | 0.000111 |  |  | 
A5 (IgG) (antibody, V domains shown, Converted to IgG with the pfusess-hchg1 (human IgG1) and pfuse2ss-hclk (human kappa) vectors) VH: EVQLVESGGGLVQPGGSLRLSCAASGYTFSSYWMSWVRQAPGKGLEWVSEINPGNGHTNYNEKFKSRFTISRDKSKNTLYLQMNSLRAEDTAVYYCARHWGPSLTSPFDYWGQGTLVTVSS VL: DIQMTQSPSSLSASVGDRVTITCRADNLGDVNVHWYQQKPGKAPKLLIYYDADRPSGVPSRFSGSNSGNDATLTISSLQPEDFATYYCQAPTTHLPYTFGQGTKVEIKR |  | 886 | 8.86e-05 | 
LH-E7 (IgG) (antibody, V domains shown, Converted to IgG; VH was cloned into Invivogen pfusess-hchg1 (human IgG1 heavy constant) and VL into pfuse2ss-hclk (human kappa constant); also called LH-67; LH-ET) VH: EVQLVESGGGLVQPGGSLRLSCAASGYTFSSYWMSWVRQAPGKGLEWVSEINPGNGHTNYNEKFKSRFTISRDKSKNTLYLQMNSLRAEDTAVYYCARHWGPSLTSPFDYWGQGTLVTVSS VL: DIQMTQSPSSLSASVGDRVTITCRADNLGDVNVHWYQQKPGKAPKLLIYYDADRPSGVPSRFSGSNSGNDATLTISSLQPEDFATYYCQAPTRIAPYTFGQGTKVEIKR |  | 1300 | 6.55e-05 | kon (human KDR1 to 3 domain [2]): 50600 M⁻¹ s⁻¹
D3 (IgG) (antibody, V domains shown, Converted to IgG with the pfusess-hchg1 (human IgG1) and pfuse2ss-hclk (human kappa) vectors) VH: EVQLVESGGGLVQPGGSLRLSCAASGYTFSSYWMSWVRQAPGKGLEWVSEINPGNGHTNYNEKFKSRFTISRDKSKNTLYLQMNSLRAEDTAVYYCARHWGPSLTSPFDYWGQGTLVTVSS VL: DIQMTQSPSSLSASVGDRVTITCRADNLGDVNVHWYQQKPGKAPKLLIYYDADRPSGVPSRFSGSNSGNDATLTISSLQPEDFATYYCQAPTKNVPYTFGQGTKVEIKR |  | 773 | 8.67e-05 | kon (human KDR1 to 3 domain [2]): 112000 M⁻¹ s⁻¹
LHL-G1 (IgG) (antibody, V domains shown, Converted to IgG with the pfusess-hchg1 (human IgG1) and pfuse2ss-hclk (human kappa) vectors) VH: EVQLVESGGGLVQPGGSLRLSCAASGYTFSSYWMSWVRQAPGKGLEWVSEINPGNGHTNYNEKFKSRFTISRDKSKNTLYLQMNSLRAEDTAVYYCARSYRPSLTSPFDFWGQGTLVTVSS VL: DIQMTQSPSSLSASVGDRVTITCRADNLGDVNVHWYQQKPGKAPKLLIYYDADRPSGVPSRFSGSNSGNDATLTISSLQPEDFATYYCQAPTTNEPYTFGQGTKVEIKR |  |  | 0.000251 | kon (human KDR1 to 3 domain [2]): 73700 M⁻¹ s⁻¹
6A6 (scFv) (scFv, from another filing, V domains shown) VH: QMQLVQSGAEVKKPGASVKLSCKASGYTFSSYWMHWVRQAPGQRLEWMGEINPGNGHTNYNEKFKSRVTITVDKSASTAYMELSSLRSEDTAVYYCAKIWGPSLTSPFDYWGQGTLVTVSS VL: SNFMLTQPPSVSVSPGKTARITCRGDNLGDVNVHWYQQRPGQAPVLVMYYDADRPSGIPERFSGSNSGNTATLTISGVEAGDEADYYCQVWDRTSEYVFGTGTKVTVLG |  |  |  | koff [3]: 0.000266 s⁻¹
6A6 (IgG) (antibody, from another filing, V domains shown) VH: QMQLVQSGAEVKKPGASVKLSCKASGYTFSSYWMHWVRQAPGQRLEWMGEINPGNGHTNYNEKFKSRVTITVDKSASTAYMELSSLRSEDTAVYYCAKIWGPSLTSPFDYWGQGTLVTVSS VL: SNFMLTQPPSVSVSPGKTARITCRGDNLGDVNVHWYQQRPGQAPVLVMYYDADRPSGIPERFSGSNSGNTATLTISGVEAGDEADYYCQVWDRTSEYVFGTGTKVTVLG |  |  |  | Kd [4]: 13200 pM; koff [4]: 0.00168 s⁻¹; kon [4]: 127000 M⁻¹ s⁻¹
